Experiments:
[1] = molecular target: Murine FGFR-3(IIIc) expressed on L6 cells (murine) (UniProt Q61851); test: fluorescent antibody 200 nM on FGFR-3 transfected L6 cells, 1 h at 37° C. followed by acid stripping, Odyssey imaging
[2] = molecular target: Murine FGFR-3(IIIc) expressed on L6 cells (murine) (UniProt Q61851); test: fluorescent antibody 200 nM on FGFR-3 transfected L6 cells, 1 h at 4° C. followed by acid stripping, Odyssey imaging
[3] = molecular target: Murine FGFR-3(IIIc) expressed on L6 cells (murine) (UniProt Q61851); test: fluorescent antibody 200 nM on FGFR-3 transfected L6 cells, 1 h at 37° C., Odyssey imaging
[4] = molecular target: Murine FGFR-3(IIIc) expressed on L6 cells (murine) (UniProt Q61851); test: fluorescent antibody 200 nM on FGFR-3 transfected L6 cells, 1 h at 4° C., Odyssey imaging

Sequence of Murine FGFR-3(IIIc) expressed on L6 cells (murine) (Q61851 21-801): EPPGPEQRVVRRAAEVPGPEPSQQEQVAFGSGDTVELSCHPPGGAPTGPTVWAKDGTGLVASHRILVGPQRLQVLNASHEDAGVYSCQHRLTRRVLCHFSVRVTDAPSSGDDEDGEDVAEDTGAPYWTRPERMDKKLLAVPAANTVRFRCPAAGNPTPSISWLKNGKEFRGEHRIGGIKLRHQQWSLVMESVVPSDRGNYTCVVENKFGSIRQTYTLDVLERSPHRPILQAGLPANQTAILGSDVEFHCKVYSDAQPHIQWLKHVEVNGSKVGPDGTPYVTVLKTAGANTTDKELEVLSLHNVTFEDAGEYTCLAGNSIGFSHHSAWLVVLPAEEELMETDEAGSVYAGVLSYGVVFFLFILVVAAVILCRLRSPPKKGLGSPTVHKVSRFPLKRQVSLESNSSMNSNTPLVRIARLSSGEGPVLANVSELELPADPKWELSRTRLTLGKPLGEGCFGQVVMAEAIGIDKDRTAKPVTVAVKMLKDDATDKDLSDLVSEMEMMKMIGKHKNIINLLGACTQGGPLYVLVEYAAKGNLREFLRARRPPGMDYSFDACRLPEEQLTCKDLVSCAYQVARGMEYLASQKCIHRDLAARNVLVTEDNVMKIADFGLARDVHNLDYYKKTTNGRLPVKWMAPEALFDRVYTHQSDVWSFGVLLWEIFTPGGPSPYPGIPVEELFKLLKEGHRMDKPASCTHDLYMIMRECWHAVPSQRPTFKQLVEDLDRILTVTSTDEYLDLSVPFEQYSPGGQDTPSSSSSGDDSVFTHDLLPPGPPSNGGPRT

- relative fluorescent intensity [1]: 1
- relative fluorescent intensity [2]: 0.6
- relative fluorescent intensity [3]: 1.1
- relative fluorescent intensity [4]: 1.5
Substance: isotype-matched non-specific control antibody

From patent US20100098696A1
